Measurements published in publication PMC3917153 (Biochemistry, 2013).

Target: T1, GB-yeIF5-B6 (S. cerevisiae, UniProt P38431 241-405)
T1 sequence (looked up): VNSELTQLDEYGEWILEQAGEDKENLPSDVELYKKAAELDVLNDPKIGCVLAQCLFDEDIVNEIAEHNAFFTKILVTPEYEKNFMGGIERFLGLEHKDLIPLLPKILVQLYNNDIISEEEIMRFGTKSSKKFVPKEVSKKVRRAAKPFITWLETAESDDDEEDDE
Test: pull-down

- binding result: binds
B1: GST-yeIF1A ΔC (lacking aa. 108-153) (domain or fragment, S. cerevisiae, UniProt P38912 1-107, looked up)
chain: MGKKNTKGGKKGRRGKNDSDGPKRELIYKEEGQEYAQITKMLGNGRVEASCFDGNKRMAHIRGKLRKKVWMGQGDIILVSLRDFQDDQCDVVHKYNLDEARTLKNQG
